47 sequences from the NTF2 design screens of Basanta et al. (2020) can be followed below.

A short description of the series: protease stability score; higher = more stable; yeast display proteolysis, trypsin and chymotrypsin.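 Note: log10 excess protease needed over predicted unfolded state with 0 meaning unfolded.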
On to “DEENRRNFERLIEAIRTNNPSDVEQLVDPNVRFQVGNEVYNGREQFSKDVERLNRQINITIHVRRLHVHGEKVVVDFTYQQEVNGRPNSHRVKWDATLENGKIKSARNTFDEEFEKELTK”, for which the protease stability score is -0.091.
Consider “DEENSEAMKRWFNAMETGDPDKVKEQLDENAKIEVGDKRIHGRDQAREEVRKMLERWEIRIKIDEIDVHGEKVVVKFRQHNDRNGEPDNQTVVFIAIFDNGKATRWLLTTDG”, for which the protease stability score is 0.289.
As to “DEENSKVYEEWLKAVHNGDPDQVRRQIDPNVKINVGEFDLKGRETVAEHVKKMKDEAHVDQDIHSIEIQGDKVRVDAQYSAEINGKPTSNHLDASVNVKNGQIKRVDVEFSK”, the protease stability score is -0.131.
With “DEENSRILKELLRAIRRGDEERAKELVDPNAKFQVGNKNVHGRDHWAQELRKEKEKIRFDMHIKHVKVDNGKIKVDLRVQVDVDGRPVTNRVKLTVELHNGRLTHLRVEMDEDQERKLKK”, the protease stability score was 0.366.
Turning to “DEENTKVAHEWLRNLERNDPKKLNELADPNAHFNVGDKQVQGMDEFERRIEDKKKEMRMKIDDYKARVHNGHVRVDVIVVIDHNGKPDKKRNVQFFDMENGRISRINQQDTG”, the protease stability score was -0.164.
For the sequence “DEENVDRAERLLDALRSGNPNTVRELMDKHVKIQIGDKHLHGREQADKKAEDDSKEINEEVKSVDVKATGNNVVIDMDVSATVDGRPVTFHRVLVIRMHNGKIQEIEIRMSEDDIRNYKK”, the protease stability score was 0.207.
Sequence “DEENVDRMEEIIRSGDFKELLELADPNVKVVVGDKEYSGRHVATTVLQSLYEQVDHHKVHSVQNEGETVEFDLKVVVNGQEMRMRFVIVFENGRIKTIQIEFTDPRQEEKFLKNIK” returned a protease stability score of 1.08.
The sequence “DEENVEAAHRFFEALNTNNPDELVKQFDPNARFRYGDTDIHGREHFRKWVKDQLDQIRFTLTSMTANVHNGKVRIELRFIKHHNGRPRDVNQEVRADVHNGKIKNLSVSDRG” yielded a protease stability score of 0.563.
As for “DEENVKIARELLKNRTSGNEEHFKRLVDPNARFNVGDTRIHGREEYVKQVRDDFRNSRESIDVRSVSASGDKVEVDMKMHFEHNGQPRSKKVILDAKIHNGRLKEYRVEEEK”, the protease stability score was -0.045.
“DEENVKIFEEFLRAEQTNDPERAKELIDKDVRIRVGDKTYHGREEWVNTFEEQQRHLKVHYKHVDNTHRNGRVHVRMTFDAVTNGEPKEVTARVEAEFHNGKAKDIQVEYRG” gave a protease stability score of -0.257.
The sequence “DEENVKKVQEQLERNDREKLKSNVDKNAEVRVGDKTYHGREDAKTVLEQLARQVDNMQWQSIRIKGEHIDAKMVVQINGKHIQVSIELTVHNGKISHFVIHARNEEVNETLKEAVD” yielded a protease stability score of 0.516.
As to “DEENVKQAKKFADAMRHGDPEKLAKLADENAKLVIGDKTVHGRDDLRRERKKLNEHSRQHVDVKSIEAENGRVDVTASMTLSHNGKPDQVHVKIHMRITNGQIEEVHVNYKP”, the protease stability score is -0.492.
“DEENVKQVERQFKQRDEGNEERVVDQADENASINIGDKRYHGMTDAAKKLVTRLKEIRFERRVVSVTMHNGKFDANYEQTQNTNGNPRTFRYKLVIHMKNGRVKSAHIQEDG”: the protease stability score was 0.062.
The result for “DEENVKVMEHWNKATSNNDEDKHRELADENANFNIGDKRIHGREDFVRWVQELKNRLRIKVEVNSIQAQGDKVTVHYKLKQETNGEPDTRNVKATARIQNGRVRSLTVKDNQ” reads -0.116; that for “DEENVRLARHYADAEARGDHDTIVELLDPNAKVDVGDHEVTGDEHVREELKKKHNQWRAELKDVKASVRGDKLRLKITFVVHINGRPSEQTIDARADIKDGRFKSFSVTIDPQEERHNES”, 0.395.
As for “DEEQAHRLNEVLKTGDFERLKDQADPNVRIEVGEKRYHGREQFQKFMTIVQETVDDVHVRSIKVRGDTVNVHMVLNVNGVKAEFIVEAHVDDGRVKEIRFRATDDEQKKNWRKIVQ”, the protease stability score was found to be 1.11.
In the case of “DEEQAKKMEHDAKNNNFEKMAEQADPNATAQYGDHRVRGRHEVIDLITHWIEKIDRIEVDSIRVHNGRLEMHFTFEVDGVQVDVVMKAELQNGSLKVLVVTATSEEQQKRLKQAEG” it was 0.234; in that of “DEEQAKSMVHNMRQNNFEELDKLVDENVRVTVGNKKLHGREEYQKWLENWKKQADRITWDSIDVHGEKIDVEFRAVVNGRTVKQKVDIQFHNGRIKTARYQVTNEELDKIMKEMVE”, 0.866.
“DEEQAKTIMEKWQKAVQTNNDELADKLYKPNVEWENGDEQRQGKEVVVKMLQKAQKKGVEFQVRKAKVEGDRVEMVYDVRIGDQTVTFTVRMDVHGGRVERVKAEASDEVKKALKKG” yielded a protease stability score of 0.444.
The sequence “DEEQAKTVMEEWAKAVQKGNTEKLKKLYKPDVEWKNGDKKNQGVDQVETQVKKAKDQGVEFQVRKAEVKGNRVRVVYDAKVGDKTVTFTVEFDVDGGKIERVRVEVDEEAKKVQKQG” displayed a protease stability score of 0.322.
“DEEQARRFREFMEVVRQGDEEKIKRYVDPNARVEVGEETLHGREDIAEWWQKVVRQIRVDITITKMSVSNGKLEIHARAQYEHNGTPEDNRQVIVIQWHNGVAKTIRMEKDG”: the protease stability score came to 0.653.
For “DEEQDARRIAELLDKVFRNNDEDQFMRLMDPNAEVVVGDKTYRGREQARSAMSEIVKHFDHVHLKLDSFSNHNGRVTASNTLHADSNGKKRKVKVTIHFDVKGDKAVIKHLTIE”, the protease stability score is 0.866.
Regarding “DEEQEARDQIKKYLDIFRTGDPDQAKKLFDKDAEVRIGDKHVRGREQISDFFKKLLHKADHVEYTIQDYDVHGDKVTVHLTVVINVNGDERRNTMVIVIKVQGEKERVQSVRVG”, the protease stability score was found to be 1.09.
In the case of “DEEQEKHVSHYLELQKHGNEDELLRTVDPNATATVGDKEYHGMKHVAHHLVNTLKRINVKIDRLDLKVEGNTARIDQVRVQKTNGKPDRYRLKQTVQFHNGRFKRVTADVRR”, the protease stability score was -0.14.
In turn, “DEEQEKTIHRAHKHNDEDSFRKLFDKDATMQIGNKTFHGREEVETAVTQWHTQVDHLRVDHMRVTNGKLQIDFTAVINGQRIELRVKIKANNGKVKSVKIQARSEEDNEHLKKELD” had a protease stability score of 0.407.
In the case of “DEEQHNFANKVWEAITKGDPDEIRRLFDENVRVKVGNKTITGREELSETMEKIKKHLRMRVQVDEIEFDGDQIRVHFTANLNVNGRPVEYRAELIMHVHDGRVKHMHLRVPEQVERELEK” it was 1.05; in that of “DEEQHSVADQFNRDLRQGDPDTIRKLLDKDADLRVGDKDLHGRENLIDHMRKMHKKMQVNVDVDSVEDHNGKVIIQATVVEHHNGKPKTYQVDARLHADNGKIKNADFQETS”, -0.115.
The result for “DEEQIKDLLERLMRAQQHGDPDRMANYLDENVRVRIGEKDISGREQYKDWNQEQVERIDHFQVHHIEVQGDKAKIDMEMKVDGKRFRFTVRMHIRDGRIDEFRFDPTVQRKIET” reads 0.97; that for “DEEQIVNRLWTEAQKNWEEGNETEIANQFDPNARVNVGEKDYHGTEQIMKWVKEILRHADSVRYSIDSIDVNGDTVYVHFTMVMRHNGQKESERIIATMKVDNGEARFTDIKQG”, 0.737; that for “DEEQKKHVKEMIEAERTGNEEQARKLVDEDVRANYGDHEVHGRETLRKHVRDVKREWSVQIDDVKLRVHNGRVQMHFDFVRDENGRPEKMTATATAEAHNGKIKEINRQDHK”, -0.204.
Sequence “DEEQLDLNRRWMTALKTNNPDDAINLIDPNAKVHVGDKTLSGRENIKTYLKHLIHESRFRFRVQSMNAKNGQVDVSVKQTQSHNGQPSTNRIVVRMEVENGTITSNTIDSKS” gave a protease stability score of -0.073.
In turn, “DEEQLKEYTKEMEHNDEEQFSRMMDKDARVIVGDKTFTGREDAATMLLLIRRRVDHIEIRKITIQGDHVVVHQVVQVNGKEAEFEREVHVKNGHIKEVHIQARDEDDERVLHQAMD” had a protease stability score of 0.468.
In turn, “DEEQLKHVAEQLRRLWENNDENQIAQLMDENVEVQVGDKTLHGRDDVRKWAQDLRKSADHVKVHSIRNRGDKVQMDFVVENNGRQTKMEVIAHVHNGRIKSLKLRTK” had a protease stability score of 1.16.
Consider “DEEQLKKVVEKLLQAIQNGNLDEIKKMLKDDVTFVLGDKTFRGVEQAVKIVKQLVDKGAEFHVERLEVKGDQAHVKTYWHAGDKTMELTVTYNVRDDKVEKVQADWSEEVKKARKHD”, for which the protease stability score was found to be 0.985.
Sequence “DEEQLKMARELFEIMHTGDPDQLKEQFPPDAHFNIGDKRVSGMTEFARQVENEHKEQRRSIDIKSMDVNSPHVTIQARFEVEHNGQPHTSTATIQFQFQNGRFLNMRVQSHQ” displayed a protease stability score of -0.106.
The result for “DEEQLKTFQQAMRDEEHGNEQRVRDLFDPNARVVYGDKVVHGREEMVKKLKRRKDEMRVELRVREYKVEEDHMSATLEVINDHNGKPDTDKQTVEARMNGDQFEQVNIQKDS” reads 0.17.
Sequence “DEEQLKTIREWMNQVQRGNFDQWAKNLDKNAHVDYGDRSVTGREEWQRLMRRQKREIRMQVKVDHVSAQGENIEVQARVRFTHNGQPDETNNKITAKVHNGRVKHMRVEEDK” gave a protease stability score of 0.248.
“DEEQLQREANEYNKLRRHGDPDRIVELADPNARAHVGDKRVHGREDMKRMVEEERKHADHITFTDFRVDGDKLEILFVITHNGQSDTRIMTIQWDNGKIKRLEVKNN” registered a protease stability score of 0.381.
The sequence “DEEQMDRFKDLKHALDEGDEDRLKNLVDPNARMRYGDKEVTGMEDIARQQVQRVNEINVEVDRMHVQVHNGTLEIHATVTENHNGKPKKYTFRATARAENGRFVHRVQETRG” returned a protease stability score of -0.101.
“DEEQMERVMQRVIKALQQGDQETVRKLGKPNGEVQAGDYRNKGPEAFVMAVDVAQKVGNKFEYKETRTKGGKMQTVVKVTVGGKTVEYEVEVVVEGGKAKEWYVRLDDDFVEQAKKS” gave a protease stability score of 0.514.
In turn, “DEEQMKKVVEKLVQALRNGNTDEIVRMVKEDVTFKLSDETYRGQEDVRKMAKQLQDKGNKMELKHKEAKGDEAEVVTVWHVGDKTAKLKVRYVVKDDKVEKVQADWSEEVVKAYKHG” displayed a protease stability score of 0.122.
The result for “DEEQMKKVVEQLLQALQNKDPEKIVQLVDEDVEFTLVDEKYKGHEDVRKLVKKLVDAGAEFRIDRHEATGDQAHVDTQWKVGDYTLKVTVTYVVRDDKVEKVEIRWSEEAKKAMKEG” reads 1.11.
“DEEQNEHFSKVLQHGDFDRLAELMDPNAKAEVGDKTVHGREEFQRWIEHFKRQVDHIQYDRIDYHGNEIHASVRVHVNGNTIEFNVSLEFKNGRVTSFMMKARTKDDEDELRRLQS” displayed a protease stability score of 1.47.
Sequence “DEEQNKLADTAMEAWNHGDPDQMVKMLDPNARVRYGDKQFHGRTDVKKWMKRLNDQARMSVTHYKIRVKGEKALLTARLEFEINGQPFRRHVKVVFNNHNGKAKQVDWQFDQDKQRKIES” had a protease stability score of 0.152.
“DEEQNRRIDDMWRAEENGDENRMKELADPNVELQIGDKQVHGMDEYVKEAKKRRDKSEISIEIKQVEVHNGSVHVDFVFTENENGTPDSKRVHVNARFDNGKLKSMSQNDTE”: the protease stability score amounted to 1.1.
Sequence “DEEQNTRFHRMLEDLKTGNEERVQDYMDPNVKVRIGNNVLDGREHAATHMVQLNREIRFHIHNFTVQVHNGRLDIKANADADVNGKPIKFSYERYAILHNGTIKRMREQFDEHLKRQLDR” displayed a protease stability score of -0.013.
In the case of “DEEQQKEQKKRLREMIETNNEDELQRQADKDVKVVVGDQTYHGREEARKWVHELKRRVDHVRVDRVEAHGNKISARYRASVNGETQRYNMVIHITNGRIQHMRVTEG”, the protease stability score worked out at 0.894.
